Ends that are not written are not given here.
Key:
CRF2R = biological target: T1, CRF2R; experiment: cell-based or functional assay
T1 sequence (Q13324 whole entry, species assumed, looked up): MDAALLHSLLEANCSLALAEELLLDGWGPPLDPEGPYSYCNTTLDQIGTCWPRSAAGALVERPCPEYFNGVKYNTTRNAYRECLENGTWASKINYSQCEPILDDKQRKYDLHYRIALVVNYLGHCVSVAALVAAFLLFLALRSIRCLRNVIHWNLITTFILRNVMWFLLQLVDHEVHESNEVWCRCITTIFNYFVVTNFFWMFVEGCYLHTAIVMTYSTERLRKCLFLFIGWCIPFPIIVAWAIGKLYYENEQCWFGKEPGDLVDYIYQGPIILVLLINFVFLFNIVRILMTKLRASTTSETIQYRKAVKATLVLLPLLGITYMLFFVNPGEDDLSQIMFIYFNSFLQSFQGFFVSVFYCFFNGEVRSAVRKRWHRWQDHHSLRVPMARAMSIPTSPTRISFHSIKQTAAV

CRF1R = experiment: cell-based or functional assay

Row | Binder | CRF2R EC50 (CRF2R) [nM] | CRF2R Emax % (CRF2R) [%] | CRF1R EC50 (CRF1R) [nM] | CRF1R Emax % (CRF1R) [%]
1 | DNPSLSIDLPLLLLRTLLELEKTQSQRERAEQNANIFANV-NH2 [SEQ ID NO 326] | 33.7 | 100 | 1000 | 30.1
2 | DNPSLSIDLPLLLLRTLLELEKTQSQRERAEQNAQIFAQV-NH2 [SEQ ID NO 327] | 28.4 | 100 | 1000 | 36.5
3 | DNPSLSIDLPLLLLRTLLELEKTQSQRERAEQNAHIFAHV-NH2 [SEQ ID NO 328] | 11.7 | 95.7 | 1000 | 30.7
4 | DNPSLSIDLPLFLLRTLLELARTQSQRERAEQNARIFARV-NH2 [SEQ ID NO 329] | 5.15 | 98.3 | 1000 | 98.4
5 | DNPSLSIDLPLILLRTLLELARTQSQRERAEQNARIFARV-NH2 [SEQ ID NO 330] | 6 | 93.7 | 1000 | 86.8
6 | PSLSIDLPLFLLRTLLELEKTQSQRERAEQNARIFARV-NH2 [SEQ ID NO 331] | 9.85 | 100 | 1000 | 78.7
7 | PSLSIDLPLILLRTLLELEKTQSQRERAEQNARIFARV-NH2 [SEQ ID NO 332] | 9.95 | 100 | 1000 | 61.3
8 | PSLSIDLPLLLLRTLLELEKTQSQRERAEQNARIFARV-NH2 [SEQ ID NO 333] | 9.85 | 96.9 | 1000 | 43.8
9 | DNPSLSIDLPLFLLRTLLELEKTQSQRERAEQNARIFARV-NH2 [SEQ ID NO 334] | 13.2 | 93.5 | 1000 | 82.6
10 | DNPSLSIDLPLILLRTLLELEKTQSQRERAEQNARIFARV-NH2 [SEQ ID NO 335] | 28.1 | 91 | 1000 | 49.5
11 | DNPSLSIDLPLFLLRTLLELEKTQSQRERAEQNARIFDRV-NH2 [SEQ ID NO 336] | 17.8 | 100 | 1000 | 59.9
12 | DNPSLSIDLPLILLRTLLELEKTQSQRERAEQNARIFDRV-NH2 [SEQ ID NO 337] | 23.9 | 86.7 | 1000 | 36.5
13 | DNPSLSIDLPLLLLRTLLELEKTQSQRERAEQNARIFDRV-NH2 [SEQ ID NO 338] | 19.3 | 77.5 | 1000 | 41.1
14 | DNPSLSIDLPQYLLRTLLELARTQSQRERAEQNAIIFASV-NH2 [SEQ ID NO 339] | 100 | 47.9 | 1000 | 13.2
15 | DNPSLSIDLPLLLLRTLLELARTQSQRERAEQNARIFARV-NH2 [SEQ ID NO 340] | 7.99 | 100 | 740 | 96
16 | DNPSLSIDLPLLLLRTLLELEKTQSQRERAEQNARIFARV-NH2 [SEQ ID NO 341] | 8.83 | 95.5 | 850 | 82.3
17 | DNPSLSIDLPLQLLRTLLELEKTQSQRERAEQNAIIFASV-NH2 [SEQ ID NO 342] | 20.2 | 92.2 | 1000 | 19.6
18 | DNPSLSIDLPLFLLRTLLELEKTQSQRERAEQNAIIFASV-NH2 [SEQ ID NO 343] | 13.6 | 96.5 | 783 | 62.5
19 | PSLSIDLPLLLLRTLLELEKTQSQRERAEQNAIIFASV-NH2 [SEQ ID NO 344] | 4.3 | – | 650 | –

Row | Binder | CRF2R EC50 (CRF2R) [nM] | CRF2R Emax % (CRF2R) [%] | CRF1R EC50 (CRF1R) [nM] | CRF1R Emax % (CRF1R) [%]
20 | DNPSLSIDLPLILLRTLLELEKTQSQRERAEQNAIIFASV-NH2 [SEQ ID NO 345] | 39.7 | 100 | 1000 | 18.8
21 | DNPSLSIDLPLLLLRTLLELEKTQSQRERAEQNAIIFASV-NH2 [SEQ ID NO 346] | 8.48 | – | 1000 | –
22 | DNPSLSIDLPLLLLRTLLELEKTQSQRERAEQNAIIFASV-NH2 [SEQ ID NO 347] | 22.4 | – | 1000 | –
23 | PSLSIDLPLLLLRTLLELEKTQSQRERAEQNAIIFASV-NH2 [SEQ ID NO 348] | 5.77 | – | 630 | –
24 | ZGPPISIDLPLQLLRKVIEIEKQEKEKQQAANNALLLATI (C-terminal amide) [SEQ ID NO 349] | 13.8 | 100 | 1000 | 44.2
25 | ZGPPISIDLPFQLLRKVIEIEKQEKEKQQAANNALLLDTI (C-terminal amide) [SEQ ID NO 350] | 11.6 | 98.1 | 1000 | 48
26 | ZGPPISIDLPFQLLRKVIEIEKQEKEKQQATTNARLLDRV (C-terminal amide) [SEQ ID NO 351] | 12.9 | 97.4 | 1000 | 85.7
27 | ZGPPISIDLPFQLLRKVIEIEKQEKEKQQAANNALLLATI (C-terminal amide) [SEQ ID NO 352] | 8.26 | 83.7 | 780 | 82.6
28 | ZGPPISIDLPLYLLRKMIEIEKQEKEKQQATTNARILARV (C-terminal amide) [SEQ ID NO 353] | 4.75 | 89.9 | 230 | 92.2
29 | IVLSLDVPIGLLQILLEQARARAAREQATTNARILARV-NH2 [SEQ ID NO 354] | 6.48 | 100 | 1000 | 13.4
30 | ZGPPISIDLSLELLRKMIEIEKQEKEKQQAANNRLLLDTI (C-terminal amide) [SEQ ID NO 355] | 6.03 | 95 | 18 | 100
31 | IVLSLDVPIGLLQILLEQARARAAREQATTNARILARVM-NH2 [SEQ ID NO 356] | 83 | – | 1000 | –
32 | ZGPPISIDLPFQLLRKLIEIEKQEKEKQQAANNALLLATI (C-terminal amide) [SEQ ID NO 357] | 6.44 | 100 | 331 | 100
33 | ZGPPISIDLPFQLLRILIEIEKQEKEKQQAANNALLLAT (C-terminal amide) [SEQ ID NO 358] | 5.56 | 100 | 99 | 100
34 | ZGPPISIDLPFQLLREVIEIEKQEKEKQQAANNALLLATI (C-terminal amide) [SEQ ID NO 359] | 23.1 | 100 | 230 | 100
35 | ZGPPISIDLPFQLLRLLIEIEKQEKEKQQAANNALLLATI (C-terminal amide) [SEQ ID NO 360] | 6.12 | 93 | 157 | 100
36 | ZGPPISIDLPFQLLRVLIEIEKQEKEKQQAANNALLLATI (C-terminal amide) [SEQ ID NO 361] | 6.37 | 99 | 149 | 100
37 | ZGPPISIDLPFQLLRKIIEIEKQEKEKQQAANNALLLATI (C-terminal amide) [SEQ ID NO 362] | 4.39 | 100 | 386 | 100

Reference: patent publication US20030148958A1 (PROCTER AND GAMBLE, published 2003)
